Tests used:
Experiment in all cases: IEDB peptide-MHC binding, purified MHC/competitive/radioactivity; ≥ and ≤ were set here for values at or beyond the usual limits of such assays
Settings in all cases: source organism: Bordetella pertussis
HLA-B*44:03 = target: HLA-B*44:03
HLA-B*57:01 = target: HLA-B*57:01
HLA-A*02:01 = target: HLA-A*02:01
HLA-B*53:01 = target: HLA-B*53:01
HLA-B*07:02 = target: HLA-B*07:02

Sequence: AAMQGAVVH
- IC50 (HLA-B*44:03): ≥ 78.2 µM

Sequence: AAPAAHADW
- IC50 (HLA-B*57:01): 19.8 µM

Sequence: GLTDGVSRI
- IC50 (HLA-A*02:01): 69.4 µM

Sequence: HSLYASYEY
- IC50 (HLA-B*53:01): 42.5 µM
- IC50 (HLA-B*57:01): 0.116 µM

Sequence: IAHRTELRG
- IC50 (HLA-B*57:01): 66.2 µM

Sequence: IENTAKLSG
- IC50 (HLA-B*44:03): 44.4 µM

Sequence: LNDSKITMG
- IC50 (HLA-B*53:01): ≥ 78.2 µM

Sequence: LVYYESIAY
- IC50 (HLA-B*53:01): 12 µM

Sequence: RVTVSGGSL
- IC50 (HLA-B*07:02): 14.5 µM

Sequence: SEAMAAWSE
- IC50 (HLA-B*44:03): 7.6 µM

Sequence: SPQPIRATV
- IC50 (HLA-B*07:02): 0.149 µM

Sequence: WLTWLAILA
- IC50 (HLA-A*02:01): 40.1 µM

From the Immune Epitope Database (IEDB)
